# B1: VP16-SRC-1 (natural protein)
# chain: not shown
# B2: VP16-mouse RXRα-LBD (domain or fragment, UniProt P28700 232-467, looked up)
# chain: NEDMPVEKILEAELAVEPKTETYVEANMGLNPSSPNDPVTNICQAADKQLFTLVEWAKRIPHFSELPLDDQVILLRAGWNELLIASFSHRSIAVKDGILLATGLHVHRNSAHSAGVGAIFDRVLTELVSKMRDMQMDKTELGCLRAIVLFNPDSKGLSNPAEVEALREKVYASLEAYCKHKYPEQPGRFAKLLLRLPALRSIGLKCLEHLFFFKLIGDTPIDTFLMEMLEAPHQAT
# B3: VP16-rat VDR-LBD (domain or fragment, UniProt P13053 127-423, looked up)
# chain: EQQHIIAILLDAHHKTYDPTYADFRDFRPPVRMDGSTGSYSPRPTLSFSGNSSSSSSDLYTTSLDMMEPSGFSNLDLNGEDSDDPSVTLDLSPLSMLPHLADLVSYSIQKVIGFAKMIPGFRDLTSDDQIVLLKSSAIEVIMLRSNQSFTMDDMSWDCGSQDYKYDVTDVSKAGHTLELIEPLIKFQVGLKKLNLHEEEHVLLMAICIVSPDRPGVQDAKLVEAIQDRLSNTLQTYIRCRHPPPGSHQLYAKMIQKLADLRSLNEEHSKQYRSLSFQPENSMKLTPLVLEVFGNEIS
# Assays:
# Assay in all cases: two-hybrid
# [1] = target: T1, Gal4-RXRα AF-1 (first 135 amino acids of human RXRα) (human, UniProt P19793 1-135)
# T1 sequence (looked up): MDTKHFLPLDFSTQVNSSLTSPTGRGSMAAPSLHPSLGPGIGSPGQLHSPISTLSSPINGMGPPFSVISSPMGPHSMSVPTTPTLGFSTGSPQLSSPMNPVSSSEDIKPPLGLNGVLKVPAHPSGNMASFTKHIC
# [2] = target: Gal4-SRC-1 (Steroid Receptor Coactivator-1) (UniProt Q15788 1-1441)
# [3] = target: T2, Gal4-mouse RXRα ligand binding domain (LBD) (mouse, UniProt P28700 232-467)
# T2 sequence (looked up): B2 chain
# Chain of Gal4-SRC-1 (Steroid Receptor Coactivator-1) (Q15788 whole entry, the tested form may be a part): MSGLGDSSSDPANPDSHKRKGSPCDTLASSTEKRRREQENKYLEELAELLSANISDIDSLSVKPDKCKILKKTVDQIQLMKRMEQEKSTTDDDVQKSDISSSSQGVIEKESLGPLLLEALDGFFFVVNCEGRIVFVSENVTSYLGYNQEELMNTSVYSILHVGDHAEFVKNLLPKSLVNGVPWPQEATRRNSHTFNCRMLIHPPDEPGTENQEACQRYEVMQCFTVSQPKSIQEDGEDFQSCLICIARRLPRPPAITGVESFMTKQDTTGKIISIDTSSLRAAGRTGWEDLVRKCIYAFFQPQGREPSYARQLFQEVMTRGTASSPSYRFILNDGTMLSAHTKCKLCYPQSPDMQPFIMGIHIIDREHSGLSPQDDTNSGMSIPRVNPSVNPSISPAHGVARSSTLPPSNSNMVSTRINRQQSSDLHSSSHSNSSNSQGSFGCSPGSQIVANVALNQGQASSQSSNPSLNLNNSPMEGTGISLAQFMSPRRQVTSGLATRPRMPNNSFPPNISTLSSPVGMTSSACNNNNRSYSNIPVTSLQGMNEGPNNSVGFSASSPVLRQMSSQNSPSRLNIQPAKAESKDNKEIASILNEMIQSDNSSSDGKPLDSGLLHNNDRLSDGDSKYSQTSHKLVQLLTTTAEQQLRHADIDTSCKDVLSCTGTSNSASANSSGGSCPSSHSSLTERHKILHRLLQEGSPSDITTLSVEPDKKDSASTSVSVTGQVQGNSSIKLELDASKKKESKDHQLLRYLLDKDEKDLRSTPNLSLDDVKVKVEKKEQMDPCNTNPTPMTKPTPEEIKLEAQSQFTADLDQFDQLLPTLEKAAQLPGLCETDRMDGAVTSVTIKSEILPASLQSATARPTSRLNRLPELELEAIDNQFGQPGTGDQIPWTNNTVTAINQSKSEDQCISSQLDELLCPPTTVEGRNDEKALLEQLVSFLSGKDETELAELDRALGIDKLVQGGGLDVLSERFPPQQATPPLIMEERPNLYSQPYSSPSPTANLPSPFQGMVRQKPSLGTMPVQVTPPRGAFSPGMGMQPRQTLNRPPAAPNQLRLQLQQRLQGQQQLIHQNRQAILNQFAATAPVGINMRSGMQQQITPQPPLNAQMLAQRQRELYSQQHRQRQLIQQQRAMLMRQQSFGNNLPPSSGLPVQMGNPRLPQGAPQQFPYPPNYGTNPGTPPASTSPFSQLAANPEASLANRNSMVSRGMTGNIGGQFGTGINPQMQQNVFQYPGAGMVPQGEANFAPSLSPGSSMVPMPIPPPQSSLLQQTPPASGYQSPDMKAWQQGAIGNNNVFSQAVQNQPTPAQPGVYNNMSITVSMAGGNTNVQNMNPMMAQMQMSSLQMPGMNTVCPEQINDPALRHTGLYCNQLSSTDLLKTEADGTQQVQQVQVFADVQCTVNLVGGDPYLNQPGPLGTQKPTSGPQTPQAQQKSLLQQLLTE
binder,measurement,setting,value
B1,"two-hybrid signal above the empty GAL4 vector control, RWPE1 cells",[1],8.2 fold
B2,"fold induction of the two-hybrid signal by 1,25(OH)2D3, RWPE1 cells",[2],2.6 fold
B3,"fold induction of the two-hybrid signal by 1,25(OH)2D3, RWPE1 cells",[3],111 fold
same,"fold induction of the two-hybrid signal by 1,25(OH)2D3, RWPE2 cells",[3],178 fold
same,"fold induction of the two-hybrid signal by 1,25(OH)2D3, RWPE2 cells",[2],10.4 fold

# Source: paper PMC2916698 (Journal of cellular physiology, 2010)
